Where a chain is given by its changes, count along the chain named. No end group written: not given here.
What was measured:
amyloid β peptide 1-42 = molecular target: T1, amyloid β peptide 1-42 (UniProt P05067 672-713); experiment: precipitation of Aβ oligomer and fibers with streptavidin-magnet beads, Western blot with anti-Aβ antibodies
T1 construct: domain: Aβ1-42; In the precipitation experiment it stood as oligomer and fibers formed 1.5 hours after dissolution at 40 µM; also called Aβ1-42; Aβ oligomer
Procedure: Aβ1-42 was dissolved at a concentration of 40 μM in 20 mM phosphate buffer, pH 7.0. […] After reaction, an aliquot thereof was sampled as a sample before immunoprecipitation (“Before precipitation”), and the remaining sample was reacted with M-280 streptavidin-magnet beads (Dynal Biotech, Oslo, Norway) adjusted to 20 μg/μl on ice for 1 hour at a ratio of 1:1 by liquid volume (final concentration: Aβ [10 μM]/synthesized peptide [10 μM]/beads [10 μg/μl]). After reaction, the beads were precipitated using a magnet to obtain “Supernatant”. To the precipitated beads, PBS was added in a liquid volume equal to the collected supernatant to obtain “Pellet”. Each obtained sample was electrophoresed and subjected to Western blot analysis using anti-Aβ antibodies.
Aβ1-42 was dissolved at a concentration of 40 μM in 20 mM phosphate buffer, pH 7.0.

[1] = molecular target: T2, pepB7-C15 (pepD1-C5, C7, C20) peptide phage clone; experiment: biopanning on coated B7 scFv; no ELISA figure is given for B7
T2 construct: also called pepD1-C7; pepD1-C20; not shown: phage gene III protein of the Ph.D.-C7C library phage (New England Biolabs)
T2 peptide: CYGTKPWMC

[2] = molecular target: T3, pepB6-L1 peptide phage clone (not fully specified (C-terminus)); experiment: phage ELISA, scFv coated on plate, phage detected with anti-M13 antibody
T3 construct: not shown: phage gene III protein of the Ph.D.-12 library phage (New England Biolabs)
T3 peptide: GMLDIFAPIRHV

[3] = molecular target: T4, pepB6-L10 peptide phage clone (not fully specified (C-terminus)); experiment: as above
T4 construct: not shown: phage gene III protein of the Ph.D.-12 library phage (New England Biolabs)
T4 peptide: TSPILDVLTPPR

[4] = molecular target: T5, pepD1-L6 peptide phage clone; experiment: as above
T5 construct: not shown: phage gene III protein of the Ph.D.-12 library phage (New England Biolabs)
T5 peptide: SSIIDILLPPIY

[5] = molecular target: T6, pepD1-L5, L9 peptide phage clone; experiment: as above
T6 construct: also called pepD1-L9; not shown: phage gene III protein of the Ph.D.-12 library phage (New England Biolabs)
T6 peptide: GSPFLDLLAPAA

[6] = molecular target: T7, pepD1-L7 peptide phage clone; experiment: as above
T7 construct: not shown: phage gene III protein of the Ph.D.-12 library phage (New England Biolabs)
T7 peptide: SILDILSPRLAE

[7] = molecular target: T8, pepD1-C2, C13 peptide phage clone; experiment: as above
T8 construct: also called pepD1-C13; not shown: phage gene III protein of the Ph.D.-C7C library phage (New England Biolabs)
T8 peptide: CYGTEPWMC

[8] = molecular target: T9, pepD1-L20 peptide phage clone; experiment: as above
T9 construct: not shown: phage gene III protein of the Ph.D.-12 library phage (New England Biolabs)
T9 peptide: NPLDFYAPSILP

[9] = molecular target: T10, pepD1-L13 peptide phage clone; experiment: as above
T10 construct: not shown: phage gene III protein of the Ph.D.-12 library phage (New England Biolabs)
T10 peptide: GNTLLDTLVPLI

[10] = molecular target: T11, pepD1-C18 peptide phage clone; experiment: as above
T11 construct: not shown: phage gene III protein of the Ph.D.-C7C library phage (New England Biolabs)
T11 peptide: CFGHEPWMC

[11] = molecular target: T12, pepD1-C8 peptide phage clone; experiment: as above
T12 construct: not shown: phage gene III protein of the Ph.D.-C7C library phage (New England Biolabs)
T12 peptide: CFGRLPWMC

[12] = molecular target: T13, pepD1-C10 peptide phage clone; experiment: as above
T13 construct: not shown: phage gene III protein of the Ph.D.-C7C library phage (New England Biolabs)
T13 peptide: CFGSLPWMC

[13] = molecular target: T14, pepD1-C11 peptide phage clone; experiment: as above
T14 construct: not shown: phage gene III protein of the Ph.D.-C7C library phage (New England Biolabs)
T14 peptide: CFGHKPWMC

[14] = molecular target: T15, pepD1-C3 peptide phage clone; experiment: as above
T15 construct: not shown: phage gene III protein of the Ph.D.-C7C library phage (New England Biolabs)
T15 peptide: CQGHLPWMC

[15] = molecular target: T2, pepB7-C15 (pepD1-C5, C7, C20) peptide …; experiment: as above
Procedure: An ELISA plate was coated with scFv used as a template in the panning or with control scFv in an amount of 50 ng/40 μl/well (0.1 M NaHCO₃, pH 8.6) at 4° C. for 6 hours. Each well was blocked with 0.5% gelatin at 4° C. for 13 hours. Each well was washed with 0.2% PBST three times and then reacted at room temperature for 1 hour by the addition of the isolated peptide phage clone solution (approximately 1.6×10¹¹ virions/40 μl). After reaction with 40 μl of biotinylated anti-M13 monoclonal antibodies (diluted 1000 folds) and a streptavidin-alkaline phosphatase conjugate (diluted 1000 folds), bound phages were detected using substrate p-nitrophenyl phosphate.
The experiment was conducted according to the procedures described in the paragraph (5) ELISA. […] The experiment was conducted according to the procedures described in the paragraph (5) ELISA. […] The experiment was conducted according to the procedures described in the paragraph (5) ELISA.

T1 sequence (P05067 672-713 limits assumed): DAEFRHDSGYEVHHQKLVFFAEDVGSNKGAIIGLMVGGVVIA

B1: unrelated control peptide (GSGGGSCGYWRSEWGLCG) (peptide)
peptide: GSGGGSCGYWRSEWGLCG
notes: also called unrelated peptide
- binding result (amyloid β peptide 1-42): no binding

B2: B7 scFv (clone B7 described in WO 2005/105998) (scFv, V domains shown)
VH: QVQLVQSGGGLVQPGGSQRLSCAASGFGFSNYAVSWVRQAPGTGLEWVAGVNGGGQNTFYADSVKGRFTISRDNSKKTVYLQMNSLRVEDTAIYYCAKDGRFRNRRPDGFDTWGQGTLVTVSS
VL: SSELTQDPNVSVALGQTVRITCQGDTLRNNFPTWYQQKPGQAPVLVFYGKDNRPSGIPDRFSGSRSGTTASLVITGAQAQDEADYYCNSRDSGGHHLVFGGGTKLTVLG
notes: Human single-chain antibody
- binding result [1]: binds

B3: B6 scFv (clone B6 described in WO 2005/105998) (scFv, V domains shown)
VH: QVQLVQSGGGVVQPGGSLRLSCAASGFTFSRYAMSWVRQAPGKGLEWVSAMSGSGDTTYYADSVKGRFTISRDNSKKTVYLQMNRLRVEDTAIYYCAKDGRFRNRRSDGFDTWGQGTLVTVSS
VL: SSELTQDPAVSVALGQTVRITCQGDSLRSYYASWYQQKPGQAPVLVIYGKDNRPSGIPDRFSGSSSGNAASLTITGAQAEDEADYYCNSRDTSGNHLVFGGGTKVTVLG
notes: Human single-chain antibody
- binding result [2]: binds
- binding result [3]: binds

B4: D1 scFv (clone D1 described in WO 2005/105998) (scFv, V domains shown)
VH: QVTLKESGGDLVKPGGSLRLSCAASGFTFRKYYMAWIRQAPGKGPEWLSTISNSGDIIDYADSVRGRFSISRDNAQKSLYLQMTSLRPDDSAIYYCAREYFFSFDVWGRGTLVTVSS
VL: B3 VL with V18I, D51N, N52K, F61I, S65R, A69T, T92S, K104Q, V105L
notes: Human single-chain antibody
- binding result [4]: binds
- binding result [5]: binds
- binding result [6]: binds
- binding result [7]: binds
- binding result [8]: binds
- binding result [9]: binds
- binding result [10]: binds
- binding result [11]: binds
- binding result [12]: binds
- binding result [13]: binds
- binding result [14]: binds
- binding result [15]: binds

— US20090088386A1 (KAGOSHIMA UNIVERSITY, published 2009)
